One block for each binder: values may come before it.
Key:
MinD(R3E) = target: T1, MinD(R3E) (E. coli, UniProt P0AEZ3 1-270, R3E); test: 90° light scatter; MinC (4 μM) and MinD or MinD(R3E) (8 μM) in 20 mM MES pH 6.5, 100 mM KCl, 10 mM MgCl2; after 5 min ATP added alone or with ClpX (0.75 μM), ClpX(E185Q) (0.75 μM), ClpP (0.9 μM) or ClpX and ClpP, with an ATP-regenerating system; monitored for 30 min more; conditions: both partners purified
T1 construct: MinD of Escherichia coli with Arg 3 changed to glutamate by site-directed mutagenesis; Same construct as m1 apart from R3E; source: E. coli BL21 (λDE3), overexpressed from a plasmid (pEt-MinD(R3E)), purified
T1 sequence (looked up): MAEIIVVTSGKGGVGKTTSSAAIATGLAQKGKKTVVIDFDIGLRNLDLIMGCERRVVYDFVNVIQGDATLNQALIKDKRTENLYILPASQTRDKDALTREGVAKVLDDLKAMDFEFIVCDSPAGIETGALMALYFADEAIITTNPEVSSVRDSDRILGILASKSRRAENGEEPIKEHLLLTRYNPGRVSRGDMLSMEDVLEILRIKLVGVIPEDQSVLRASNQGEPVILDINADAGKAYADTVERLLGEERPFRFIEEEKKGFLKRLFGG

ClpX = target: T2, ClpX (E. coli, UniProt P0A6H1 1-424); test: negative-stain transmission electron microscopy; MinC (4 μM), MinD or MinD(R3E) (8 μM), ATP (8 mM), with or without ClpXP, or ClpXP with ATP alone, in copolymer assembly buffer; carbon/formvar grids, fixed with glutaraldehyde, stained with uranyl acetate; conditions: both partners purified
T2 construct: ClpX, AAA+ unfoldase of Escherichia coli; concentrations are reported as ClpX hexamers; Purified as a native protein by earlier published methods; also called wildtype ClpX; source: E. coli BL21 (λDE3), overexpressed from a plasmid, purified as native protein

binding result (MinD(R3E)): binds
B1: MinC (natural protein, E. coli, UniProt P18196 1-231, looked up)
chain: MSNTPIELKGSSFTLSVVHLHEAEPKVIHQALEDKIAQAPAFLKHAPVVLNVSALEDPVNWSAMHKAVSATGLRVIGVSGCKDAQLKAEIEKMGLPILTEGKEKAPRPAPTPQAPAQNTTPVTKTRLIDTPVRSGQRIYAPQCDLIVTSHVSAGAELIADGNIHVYGMMRGRALAGASGDRETQIFCTNLMAELVSIAGEYWLSDQIPAEFYGKAARLQLVENALTVQPLN
notes: concentrations are reported as MinC dimers; Purified as a native protein by earlier published methods; source: E. coli BL21 (λDE3), overexpressed from a plasmid (pEt-MinC), purified as native protein

binding result (ClpX): binds
B2: ClpP (enzyme)
chain: not shown
notes: ClpP, serine protease of Escherichia coli; concentrations are reported as ClpP tetradecamers; Purified as a native protein by earlier published methods; source: E. coli BL21 (λDE3), overexpressed from a plasmid, purified as native protein; copies: 14

Reference: PMC7857489, “Degradation of MinD oscillator complexes by Escherichia coli ClpXP” (The Journal of Biological Chemistry, 2020)
